Assay [1] concerns the target L-SIGN-7 (human) (UniProt Q9H2X3). Put plainly: HCVpp supernatant on HeLa-SIGN transfectants, cell-bound p24 by ELISA. Background: ELISA stands for enzyme-linked immunosorbent assay.
The target in assay [2] is L-SIGN-9 (human). Description: flow cytometry on HeLa-SIGN transfectants. A general note: A flow cytometer gives signals particle by particle.
In assay [3] the target is L-SIGN-9 (human). Put plainly: flow cytometry, E2 at 5 µg/ml; lower end tied to L-SIGN-9 by the words L-SIGN-9 cells showing the lowest levels of binding.
Assay [4] deals with HeLa-SIGN transfectants (L-SIGN isoforms tested). Put plainly: flow cytometry, E2 at 5 µg/ml; upper end not tied to an isoform.

Chain of L-SIGN-7 (human) (Q9H2X3 whole entry): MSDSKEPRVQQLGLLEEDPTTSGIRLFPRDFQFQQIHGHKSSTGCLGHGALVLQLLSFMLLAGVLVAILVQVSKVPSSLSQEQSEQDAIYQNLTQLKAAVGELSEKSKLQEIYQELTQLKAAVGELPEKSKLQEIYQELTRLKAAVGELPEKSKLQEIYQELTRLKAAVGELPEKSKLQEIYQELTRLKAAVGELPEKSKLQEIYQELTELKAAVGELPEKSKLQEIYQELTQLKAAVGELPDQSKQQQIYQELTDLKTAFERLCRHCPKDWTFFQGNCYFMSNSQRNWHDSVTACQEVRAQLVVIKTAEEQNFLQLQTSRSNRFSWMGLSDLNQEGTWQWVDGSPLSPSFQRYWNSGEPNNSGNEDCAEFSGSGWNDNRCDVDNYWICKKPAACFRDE

Regarding “HCV pseudovirus particles (HCVpp) (from UniProt P27958 192-383; P27958 384-746) (other; other documents disagree on this pair)”, the fold higher binding than to the other isoforms in assay [1] was determined as 2 fold.
For soluble E2 glycoprotein, in assay [2], the fold lower binding than the other isoforms is 2 to 3 fold. For the same substance, in assay [3], the fold above background binding to parental HeLa worked out at 9 fold and the specific binding, percent of cells was 35 % of cells. In addition, in assay [4], the fold above background binding to parental HeLa came out at 25 fold and the specific binding, percent of cells is 93 % of cells.

The values are drawn from patent US20060292151A1, “L-SIGN polymorphisms and methods involving use of same” (priority 2004, published 2006).
